The supplement of paper PMC12667976

B1: library; numbered along this chain (parent)
chain: MATDAALRRLLRLHRTEIAVAVDSAFPLLHALADHDVVPEDKFQETLHLKEKEGCPQAFHALLSWLLTQDSTAILDFWRVLFKDYNLERYGRLQPILDSFPKDVDLSQPRKGRKPPAVPKALVPPPRLPTKRKASEEARAAAPAALTPRGTASPGSQLKAKPPKKPESSAEQQRLPLGNGIQTMSASVQRAVAMSSGDVPGARGAVEGILIQQVFESGGSKKCIQVGGEFYTPSKFEDSGSGKNKARSSSGPKPLVRAKGAQGAAPGGGEARLGQQGSVPAPLALPSDPQLHQKNEDECAVCRDGGELICCDGCPRAFHLACLSPPLREIPSGTWRCSSCLQATVQEVQPRAEEPRPQEPPVETPLPPGLRSAGEEVRGPPGEPLAGMDTTLVYKHLPAPPSAAPLPGLDSSALHPLLCVGPEGQQNLAPGARCGVCGDGTDVLRCTHCAAAFHWRCHFPAGTSRPGTGLRCRSCSGDVTPAPVEGVLAPSPARLAPGPAKDDTASHEPALHRDDLESLLSEHTFDGILQWAIQSMARPAAPFPS

Variants of: B1
Assay: AIRE transcriptional activation functional score (insulin promoter-GFP; nonsense median 0, synonymous median 1) (normalised score); higher = higher AIRE activity (more reporter activation)
Conditions: with insulin promoter-GFP reporter in HEK293
Outline: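 Using Bxb1 recombinase, codon-optimized NNN-codon libraries for three AIRE regions were inserted into Flp-In T-REx HEK293 landing-pad cells with an insulin core promoter-GFP reporter. After integrants (mCherry+, BFP−) were sorted at day 7 and expanded for 7 days, the top 10% GFP and unselected integrant populations underwent tile-sequencing. Functional scores are wild-type-subtracted enrichments of variants in select over non-select samples. A cutoff of 10 counts per million in non-select applied, and values were rescaled (nonsense median 0, synonymous median 1) and averaged over biological replicates.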

AIRE transcriptional activation functional score of substitutions, site by site:
P315: A 0.558; S 1.14; C 0.985; T 0.854; Y 0.976; M 1.22; W 2.51; R 0.972; L 0.924; V 1.12; N 1.1; F 0.835; G 0.618; H 0.985; D 1.08; E 0.802; K 0.481; I 1; Q 1.05
L308: T 0.853; G 0.784; N 0.45; E 1.02; I 0.905; C 1.43; M 1.11; V 1.16; D 0.755; K 0.0443; Q 1.3; A 1.06; Y 0.412; F 0.909; S 1.12; W -0.607; P 0.912; R 0.932; H 1.33
A321: E 0.854; T 0.918; V 1.05; S 1.01; P 1.3; K 1.09; C 0.948; M 1.58; L 0.961; F 1.1; D 0.763; R 0.843; H 0.857; G 1.21; W 1.14; Y 0.541; N 1.06; Q 1.11; I 1.33
D312: Q 1.17; K 0.281; S 0.764; N 0.702; I 0.684; G 0.92; E 0.977; V 0.485; W 0.939; R 0.976; A 1.19; H 1; M 0.226; F 0.823; Y 0.942; L 0.872; C 1.09; P 0.626; T 0.953
C310: Y 0.993; N 0.714; M 0.814; L 0.935; K 0.681; Q 0.509; D 0.991; E 1.29; R 0.907; A 0.821; T 0.959; I 0.643; P 0.625; F 0.908; V 0.912; W 0.433; S 0.768; H 0.624; G 0.824
E307: M 0.227; Q 1; R 1.28; G 1.18; L 0.372; H 1.11; T 1.03; Y 0.242; W 0.599; I 0.714; C 0.732; D 0.973; F 0.273; N 1.41; S 1.2; A 0.982; P 0.172; K 1.16; V 1.2
G313: H 1.5; I 0.979; Q 1; T 0.676; L 1.28; M -0.04; K 0.717; Y 1.16; V 1.22; W 1.27; E 0.654; A 0.829; C 1.51; P 0.756; S 0.974; D 1.39; N 0.241; R 0.762; F 1.13
C311: R 0.856; I 0.604; M 1.62; Q 0.783; N 1.47; K 1.13; G 0.921; L 0.839; P 1.34; V 0.86; T 0.998; E 0.822; W 0.678; H 1.01; D 0.772; A 1.11; S 1.04; Y 0.792; F 0.878
G305: Y 1.05; P 0.937; V 1.07; Q 0.0432; S 0.9; R 0.945; I -0.493; L 1.31; K 1.08; M 0.666; N 1.16; W 0.779; H 0.264; T 1.35
C314: N 1.03
